Laboratory results: IntAct's records for PubMed 31515488

B1: Mothers against decapentaplegic homolog 4 (Homo sapiens), Q13485 (parent)
chain: MDNMSITNTPTSNDACLSIVHSLMCHRQGGESETFAKRAIESLVKKLKEKKDELDSLITAITTNGAHPSKCVTIQRTLDGRLQVAGRKGFPHVIYARLWRWPDLHKNELKHVKYCQYAFDLKCDSVCVNPYHYERVVSPGIDLSGLTLQSNAPSSMMVKDEYVHDFEGQPSLSTEGHSIQTIQHPPSNRASTETYSTPALLAPSESNATSTANFPNIPVASTSQPASILGGSHSEGLLQIASGPQPGQQQNGFTGQPATYHHNSTTTWTGSRTAPYTPNLPHHQNGHLQHHPPMPPHPGHYWPVHNELAFQPPISNHPAPEYWCSIAYFEMDVQVGETFKVPSSCPIVTVDGYVDPSGGDRFCLGQLSNVHRTEAIERARLHIGKGVQLECKGEGDVWVRCLSDHAVFVQSYYLDREAGRAPGDAVHKIYPSAYIKVFDLRQCHRQMQQQAATAQAAAAAQAAAVAGNIPGPGSVGGIAPAISLSAAAGIGVDDLRRLCILRMSFVKGWGPDYPRQSIKETPCWIEIHLHRALQLLDEVLHTMPIADPQPLD
partner: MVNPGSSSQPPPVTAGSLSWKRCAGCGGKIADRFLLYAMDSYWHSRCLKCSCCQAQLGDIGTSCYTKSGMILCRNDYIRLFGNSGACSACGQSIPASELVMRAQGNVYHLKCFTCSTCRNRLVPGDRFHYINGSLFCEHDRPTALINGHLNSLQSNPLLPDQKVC
B2: Serine/threonine-protein kinase PAK 5 (Homo sapiens), Q9P286 (parent)
chain: MFGKKKKKIEISGPSNFEHRVHTGFDPQEQKFTGLPQQWHSLLADTANRPKPMVDPSCITPIQLAPMKTIVRGNKPCKETSINGLLEDFDNISVTRSNSLRKESPPTPDQGASSHGPGHAEENGFITFSQYSSESDTTADYTTEKYREKSLYGDDLDPYYRGSHAAKQNGHVMKMKHGEAYYSEVKPLKSDFARFSADYHSHLDSLSKPSEYSDLKWEYQRASSSSPLDYSFQFTPSRTAGTSGCSKESLAYSESEWGPSLDDYDRRPKSSYLNQTSPQPTMRQRSRSGSGLQEPMMPFGASAFKTHPQGHSYNSYTYPRLSEPTMCIPKVDYDRAQMVLSPPLSGSDTYPRGPAKLPQSQSKSGYSSSSHQYPSGYHKATLYHHPSLQSSSQYISTASYLSSLSLSSSTYPPPSWGSSSDQQPSRVSHEQFRAALQLVVSPGDPREYLANFIKIGEGSTGIVCIATEKHTGKQVAVKKMDLRKQQRRELLFNEVVIMRDYHHDNVVDMYSSYLVGDELWVVMEFLEGGALTDIVTHTRMNEEQIATVCLSVLRALSYLHNQGVIHRDIKSDSILLTSDGRIKLSDFGFCAQVSKEVPKRKSLVGTPYWMAPEVISRLPYGTEVDIWSLGIMVIEMIDGEPPYFNEPPLQAMRRIRDSLPPRVKDLHKVSSVLRGFLDLMLVREPSQRATAQELLGHPFLKLAGPPSCIVPLMRQYRHH
partner: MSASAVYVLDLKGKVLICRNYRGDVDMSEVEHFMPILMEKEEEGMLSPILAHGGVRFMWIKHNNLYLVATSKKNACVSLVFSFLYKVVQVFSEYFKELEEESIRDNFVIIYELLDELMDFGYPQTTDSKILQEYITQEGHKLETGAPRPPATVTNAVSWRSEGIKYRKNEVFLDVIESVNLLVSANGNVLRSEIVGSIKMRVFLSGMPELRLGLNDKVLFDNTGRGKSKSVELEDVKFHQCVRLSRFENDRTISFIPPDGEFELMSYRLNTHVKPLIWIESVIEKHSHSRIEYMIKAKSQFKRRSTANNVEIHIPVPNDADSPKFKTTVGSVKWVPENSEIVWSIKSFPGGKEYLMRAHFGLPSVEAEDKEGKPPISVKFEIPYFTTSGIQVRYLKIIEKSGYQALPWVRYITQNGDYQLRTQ
B3: Melanoma-associated antigen 8 (Homo sapiens), P43361 (parent)
chain: MLLGQKSQRYKAEEGLQAQGEAPGLMDVQIPTAEEQKAASSSSTLIMGTLEEVTDSGSPSPPQSPEGASSSLTVTDSTLWSQSDEGSSSNEEEGPSTSPDPAHLESLFREALDEKVAELVRFLLRKYQIKEPVTKAEMLESVIKNYKNHFPDIFSKASECMQVIFGIDVKEVDPAGHSYILVTCLGLSYDGLLGDDQSTPKTGLLIIVLGMILMEGSRAPEEAIWEALSVMGLYDGREHSVYWKLRKLLTQEWVQENYLEYRQAPGSDPVRYEFLWGPRALAETSYVKVLEHVVRVNARVRISYPSLHEEALGEEKGV
partner: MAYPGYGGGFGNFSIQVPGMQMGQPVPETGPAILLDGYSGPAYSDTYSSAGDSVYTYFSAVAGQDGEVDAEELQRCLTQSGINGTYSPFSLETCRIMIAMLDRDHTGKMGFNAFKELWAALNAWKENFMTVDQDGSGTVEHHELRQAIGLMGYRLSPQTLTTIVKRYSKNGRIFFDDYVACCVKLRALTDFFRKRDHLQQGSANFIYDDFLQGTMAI
B4: Keratin-associated protein 3-2 (Homo sapiens), Q9BYR7 (parent)
chain: MDCCASRSCSVPTGPATTICSSDKSCRCGVCLPSTCPHTVWLLEPICCDNCPPPCHIPQPCVPTCFLLNSCQPTPGLETLNLTTFTQPCCEPCLPRGC
partner: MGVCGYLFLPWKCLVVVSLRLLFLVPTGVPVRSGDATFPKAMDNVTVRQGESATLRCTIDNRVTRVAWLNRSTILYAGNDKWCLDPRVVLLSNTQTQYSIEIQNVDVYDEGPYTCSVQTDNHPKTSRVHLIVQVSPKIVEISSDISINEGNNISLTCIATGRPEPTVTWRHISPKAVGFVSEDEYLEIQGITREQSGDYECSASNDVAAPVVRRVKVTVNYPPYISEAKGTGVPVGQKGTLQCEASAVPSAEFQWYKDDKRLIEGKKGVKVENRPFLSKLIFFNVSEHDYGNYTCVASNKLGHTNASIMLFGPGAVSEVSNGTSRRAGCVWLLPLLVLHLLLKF
B5: Zinc finger protein Aiolos (Homo sapiens), Q9UKT9 (parent)
chain: MEDIQTNAELKSTQEQSVPAESAAVLNDYSLTKSHEMENVDSGEGPANEDEDIGDDSMKVKDEYSERDENVLKSEPMGNAEEPEIPYSYSREYNEYENIKLERHVVSFDSSRPTSGKMNCDVCGLSCISFNVLMVHKRSHTGERPFQCNQCGASFTQKGNLLRHIKLHTGEKPFKCHLCNYACQRRDALTGHLRTHSVEKPYKCEFCGRSYKQRSSLEEHKERCRTFLQSTDPGDTASAEARHIKAEMGSERALVLDRLASNVAKRKSSMPQKFIGEKRHCFDVNYNSSYMYEKESELIQTRMMDQAINNAISYLGAEALRPLVQTPPAPTSEMVPVISSMYPIALTRAEMSNGAPQELEKKSIHLPEKSVPSERGLSPNNSGHDSTDTDSNHEERQNHIYQQNHMVLSRARNGMPLLKEVPRSYELLKPPPICPRDSVKVINKEGEVMDVYRCDHCRVLFLDYVMFTIHMGCHGFRDPFECNMCGYRSHDRYEFSSHIARGEHRALLK
partner: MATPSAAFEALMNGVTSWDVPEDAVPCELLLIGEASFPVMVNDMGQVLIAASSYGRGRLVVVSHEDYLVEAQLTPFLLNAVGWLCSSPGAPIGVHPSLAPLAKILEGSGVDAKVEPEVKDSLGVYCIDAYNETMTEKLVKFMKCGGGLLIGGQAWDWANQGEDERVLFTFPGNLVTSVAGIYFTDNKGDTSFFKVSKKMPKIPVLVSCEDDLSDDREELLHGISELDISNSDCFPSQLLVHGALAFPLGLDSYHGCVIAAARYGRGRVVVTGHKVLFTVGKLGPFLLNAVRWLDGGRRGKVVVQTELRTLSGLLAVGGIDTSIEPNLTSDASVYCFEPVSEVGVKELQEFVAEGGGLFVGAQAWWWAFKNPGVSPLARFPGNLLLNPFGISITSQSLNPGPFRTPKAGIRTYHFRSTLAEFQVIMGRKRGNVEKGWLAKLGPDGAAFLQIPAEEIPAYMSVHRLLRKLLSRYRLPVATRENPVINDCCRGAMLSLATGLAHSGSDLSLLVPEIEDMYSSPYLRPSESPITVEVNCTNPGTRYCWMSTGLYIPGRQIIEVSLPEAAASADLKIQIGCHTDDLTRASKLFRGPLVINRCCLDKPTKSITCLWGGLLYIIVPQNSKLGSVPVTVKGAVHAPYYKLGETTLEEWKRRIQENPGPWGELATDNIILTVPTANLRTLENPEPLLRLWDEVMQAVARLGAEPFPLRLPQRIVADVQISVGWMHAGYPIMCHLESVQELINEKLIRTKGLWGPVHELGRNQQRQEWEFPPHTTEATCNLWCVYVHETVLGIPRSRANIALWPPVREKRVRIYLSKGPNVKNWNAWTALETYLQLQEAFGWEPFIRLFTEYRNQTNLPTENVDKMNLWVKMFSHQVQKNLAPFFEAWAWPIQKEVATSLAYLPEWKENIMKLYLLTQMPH

Variants of: B1
Details: with lmo4_human LMO4, P61968

Row | Variant | effect of a mutation on the interaction
1 | C324R | disrupting interaction strength
2 | E330K | with no effect
3 | V350D | disrupting interaction strength

More lines, now with the values ahead:

Row | effect of a mutation on the interaction | Variant
4 | with no effect | G352R
5 | with no effect | Y353S

Variants of: B2
Details: with ap1m1_human AP1M1, Q9BXS5

Row | Variant | effect of a mutation on the interaction
6 | S511N | with no effect
7 | V604I | with no effect

Variants of: B3
Details: with gran_human GCA

Row | Variant | effect of a mutation on the interaction
8 | R9C | with no effect
9 | R121H | with no effect

Variants of: B4
Details: with ntri_human NTM

Row | Variant | effect of a mutation on the interaction
10 | S8G | with no effect
11 | R27C | with no effect

Variants of: B5
Details: with tcaf1_human TCAF1, Q9Y4C2

Row | Variant | effect of a mutation on the interaction
12 | A24V | with no effect
